Measured values reported in PMC3992434 (Developmental cell, 2013).

Target: MBP-LDLR tail wild-type (full-length LDLR tail fused to maltose-binding protein)
Test: pull-down

B1: recombinant GST-His-tagged AP-1B core complex (γ, β1, μ1B, σ1) (complex)
chain 1: not shown
chain 2: MTDSKYFTTTKKGEIFELKAELNSDKKEKKKEAVKKVIASMTVGKDVSALFPDVVNCMQTDNLELKKLVYLYLMNYAKSQPDMAIMAVNTFVKDCEDPNPLIRALAVRTMGCIRVDKITEYLCEPLRKCLKDEDPYVRKTAAVCVAKLHDINAQLVEDQGFLDTLKDLISDSNPMVVANAVAALSEIAESHPSSNLLDLNPQSINKLLTALNECTEWGQIFILDCLANYMPKDDREAQSICERVTPRLSHANSAVVLSAVKVLMKFMEMLSKDLDYYGTLLKKLAPPLVTLLSAEPELQYVALRNINLIVQKRPEILKHEMKVFFVKYNDPIYVKLEKLDIMIRLASQANIAQVLAELREYATEVDVDFVRKAVRAIGRCAIKVEQSAERCVSTLLDLIQTKVNYVVQEAIVVIKDIFRKYPNKYESVIATLCENLDSLDEPEARAAMIWIVGEYAERIDNADELLESFLEGFHDKSTQVQLQLLTAFVKLFLKKPTETQELVQQVLSLATQDSDNPDLRDRGYIYWRLLSTDPVAAKEVVLAEKPLISEETDLIEPTLLDELICYIGTLASVYHKPPSAFVEG
chain 3: MSASAVFILDVKGKPLISRNYKGDVPMTEIDHFMPLLMQREEEGVLAPLLSHGRVHFLWIKHSNLYLVATTLKNANASLVYSFLYKTVEVFCEYFKELEEESIRDNFVIVYDLLDELMDFGFPQTTDSKILQEYITQQGNKLETGKSRVPPTVTNAVSWRSEGIKYKKNEVFIDVIESVNLLVNANGSVLLSEIVGTIKLKVFLSGMPELRLGLNDRVLFELTGRSKNKSVELEDVKFHQCVRLSRFDNDRTISFIPPDGDFELMSYRLSTQVKPLIWIESVIEKFSHSRVEIMVKAKGQFKKQSVANGVEISVPVPSDADSPRFKTSVGSAKYVPEKNVVIWSIKSFPGGKEYLMRAHFGLPSVETEEVEGRPPIGVKFEIPYFTVSGIQVRYMKIIEKSGYQALPWVRYITQSGDYQLRTS
chain 4: MIHFILLFSRQGKLRLQKWYITLPDKERKKITREIVQIILSRGHRTSSFVDWKELKLVYKRYASLYFCCAIENQDNELLTLEIVHRYVELLDKYFGNVCELDIIFNFEKAYFILDEFIIGGEIQETSKKIAVKAIEDSDMLQEVSTVCQTMGER
For B1, the “fold binding relative to AP-1A” value was roughly 5 fold.
